Test results as given in article PMC4380446.

Columns and labels:
[1] = test system: haemagglutinin on whole H9N2 virus (Influenza A virus H9N2 (avian; strain not given in material)); assay: capillary electrophoresis
[2] = test system: purified haemagglutinin H9 (H9-HA) (Influenza A virus H9N2 (avian; strain not given in material)); assay: capillary electrophoresis
[3] = test system: haemagglutinin on whole H9N2 virus (Influenza A virus H9N2 (avian; strain not given in material)); assay: competition ELAA

| Sequence | Kd [1] [µM] | Kd [2] [µM] | inhibition of binding [3] [% inhibition] |
| --- | --- | --- | --- |
| GCTGCAATACTCATGGACAGCCTCCTGGGGTCAGGCTCAGACATTGATAAAGCGACATCGGTCTGGAGTACGACCCTGAA [A9] | 0.0425 | 0.0462 | 76.3 |
| GCTGCAATACTCATGGACAGCGGGGGTCTCGCCCTCCCGGCGGCCTCGGCGAGCGTCGGCGTCTGGAGTACGACCCTGAA [A6] |  | 0.0206 |  |
